Results as given in patent US20220409701A1, “PROCESS FOR PRODUCING A TABLET COMPRISING GLP-1 PEPTIDES” (Novo Nordisk A/S, priority 2019, published 2022).

Assay: Isoelectric point (pI) of the GLP-1 peptide
Assay type: physicochemical
Conditions: pH value where the peptide carries no net charge
Description: Exemplary non-volatile bases are sodium hydroxide, potassium hydroxide, buffers selected from e.g. a phosphate buffer, a TRIS buffer, an acetate buffer. The ‘pI’ as used herein refers to the isoelectric point of the GLP-1 peptide, i.e. the pH value where the peptide carried no net charge.

Substance | pI
N^6,26-{18-[N-(17-carboxyheptadecanoyl)-L-γ-glutamyl]-10-oxo-3,6,12,15-tetraoxa-9,18-diazaoctadecanoyl}-[8-(2-amino-2-propanoic acid), 34-L-arginine]human glucagon-like peptide 1(7-37) [semaglutide] | about 5.4
Nε27-[2-[2-[2-[[2-[2-[2-[[(4S)-4-carboxy-4-[10-(4-carboxyphenoxy)decanoylamino]butanoyl]amino]ethoxy]ethoxy]acetyl]amino]ethoxy]ethoxy]acetyl], Nε36-[2-[2-[2-[[2-[2-[2-[[(4S)-4-carboxy-4-[10-(4-carboxyphenoxy)decanoylamino]butanoyl]amino]ethoxy]ethoxy]acetyl]amino]ethoxy]ethoxy]a cetyl]-[Aib8,Glu22,Arg26,Lys27,Glu30,Arg34,Lys36]-GLP-1-(7-37)-peptidyl-Glu-Gly [Compound A] | about 4.6
